According to patent publication US11230591:

Tests used:
[1] = molecular target: pentameric gH complex on infectious CMV (neutralization assays) (human cytomegalovirus); assay: cell-based or functional assay
[2] = molecular target: recombinant pentameric gH complex (Towne strain) (human cytomegalovirus, Towne strain) (UniProt P17176); assay: BLI competition on His-pentamer; competitor (antibody 2): 276.1
[3] = molecular target: recombinant pentameric gH complex (Towne strain) (human cytomegalovirus, Towne strain) (UniProt P17176); assay: BLI competition on His-pentamer; competitor (antibody 2): 1-150
[4] = molecular target: recombinant pentameric gH complex (Towne strain) (human cytomegalovirus, Towne strain) (UniProt P17176); assay: BLI competition on His-pentamer; competitor (antibody 2): 3-16
[5] = molecular target: recombinant pentameric gH complex (Towne strain) (human cytomegalovirus, Towne strain) (UniProt P17176); assay: BLI competition on His-pentamer; competitor (antibody 2): 316.2
[6] = molecular target: recombinant pentameric gH complex (Towne strain) (human cytomegalovirus, Towne strain) (UniProt P17176); assay: BLI competition on His-pentamer; competitor (antibody 2): 2-18
[7] = molecular target: recombinant pentameric gH complex (Towne strain) (human cytomegalovirus, Towne strain) (UniProt P17176); assay: BLI competition on His-pentamer; competitor (antibody 2): 2-25
[8] = molecular target: recombinant pentameric gH complex (Towne strain) (human cytomegalovirus, Towne strain) (UniProt P17176); assay: BLI competition on His-pentamer; competitor (antibody 2): 324.4
[9] = molecular target: recombinant pentameric gH complex (Towne strain) (human cytomegalovirus, Towne strain) (UniProt P17176); assay: BLI competition on His-pentamer; competitor (antibody 2): 70.7
[10] = molecular target: recombinant pentameric gH complex (Towne strain) (human cytomegalovirus, Towne strain) (UniProt P17176); assay: BLI competition on His-pentamer; competitor (antibody 2): 3-7
[11] = molecular target: recombinant pentameric gH complex (Towne strain) (human cytomegalovirus, Towne strain) (UniProt P17176); assay: BLI competition on His-pentamer; competitor (antibody 2): 1-85
[12] = molecular target: recombinant pentameric gH complex (Towne strain) (human cytomegalovirus, Towne strain) (UniProt P17176); assay: BLI competition on His-pentamer; competitor (antibody 2): 57.4
[13] = molecular target: recombinant pentameric gH complex (Towne strain) (human cytomegalovirus, Towne strain) (UniProt P17176); assay: BLI competition on His-pentamer; competitor (antibody 2): 270.7
[14] = molecular target: recombinant pentameric gH complex (Towne strain) (human cytomegalovirus, Towne strain) (UniProt P17176); assay: BLI competition on His-pentamer; competitor (antibody 2): 124.4
[15] = molecular target: recombinant pentameric gH complex (Towne strain) (human cytomegalovirus, Towne strain) (UniProt P17176); assay: BLI competition on His-pentamer; competitor (antibody 2): 1-103
[16] = molecular target: recombinant pentameric gH complex (Towne strain) (human cytomegalovirus, Towne strain) (UniProt P17176); assay: BLI competition on His-pentamer; competitor (antibody 2): 1-32
[17] = molecular target: recombinant pentameric gH complex (Towne strain) (human cytomegalovirus, Towne strain) (UniProt P17176); assay: BLI competition on His-pentamer; competitor (antibody 2): 3-15
CMV virions = assay: virion ELISA

recombinant pentameric gH complex (Towne strain) (human cytomegalovirus, Towne strain), sequence (P17176 30-715, one chain of several): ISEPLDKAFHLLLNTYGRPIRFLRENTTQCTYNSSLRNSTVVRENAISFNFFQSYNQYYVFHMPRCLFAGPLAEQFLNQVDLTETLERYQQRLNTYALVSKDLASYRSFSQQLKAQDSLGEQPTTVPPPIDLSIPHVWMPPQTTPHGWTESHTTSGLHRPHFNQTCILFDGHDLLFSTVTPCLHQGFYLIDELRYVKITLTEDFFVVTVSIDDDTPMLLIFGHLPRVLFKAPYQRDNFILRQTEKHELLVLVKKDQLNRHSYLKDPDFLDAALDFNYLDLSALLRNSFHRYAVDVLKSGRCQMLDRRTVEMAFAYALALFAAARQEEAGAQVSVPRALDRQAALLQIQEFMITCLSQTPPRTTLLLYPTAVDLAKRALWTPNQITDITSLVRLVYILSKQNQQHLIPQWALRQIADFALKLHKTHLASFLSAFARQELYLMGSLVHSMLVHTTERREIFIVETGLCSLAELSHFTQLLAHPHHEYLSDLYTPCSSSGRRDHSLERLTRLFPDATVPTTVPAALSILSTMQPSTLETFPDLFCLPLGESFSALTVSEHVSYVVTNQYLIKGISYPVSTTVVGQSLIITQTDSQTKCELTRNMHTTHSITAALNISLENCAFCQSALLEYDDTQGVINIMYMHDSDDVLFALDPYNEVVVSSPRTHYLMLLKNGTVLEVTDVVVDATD

Binder | EC50 Neutralizing [1] | IC50 in ARPE-19 [1] | IC50 in MRC-5 [1] | Pair-wise inhibition (%) [2] | Pair-wise inhibition (%) [3] | Pair-wise inhibition (%) [4] | Pair-wise inhibition (%) [5] | Pair-wise inhibition (%) [6] | Pair-wise inhibition (%) [7] | Pair-wise inhibition (%) [8] | Pair-wise inhibition (%) [9] | Pair-wise inhibition (%) [10] | Pair-wise inhibition (%) [11] | Pair-wise inhibition (%) [12] | Pair-wise inhibition (%) [13] | Pair-wise inhibition (%) [14] | Pair-wise inhibition (%) [15] | Pair-wise inhibition (%) [16] | Pair-wise inhibition (%) [17] | EC50 (CMV virions)
1-150 (antibody, V domains shown) VH: QVQLVESGGGLVKPGGSLRLSCAASGFSFSAYYMSWIRQAPGKGLEWISYISSSGNTIYYTDSVKGRFTIARDNAKNSLYLQMNSLRAEDTGLYYCARDSYSKLADIEATEAFDVWGQGTMVAVSS VL: SYELTQPPSVSVAPGKTARITCGGNNIGSKSVHWYQQKPGQAPVMVIYYDSDRPSGIPERFSGSNSGNTATLTISRVEAGDEADYYCQVWDSGSDRVVFGGGTKLTVL | 1 ng/mL | 0.31 ng/mL | 260 ng/mL | -12% | 104% | 2% | -22% | -10% | -22% | -12% | -32% | 0% | 61% | -19% | -29% | -22% | 26% | -11% | 6% | –
1-85 (antibody, V domains shown) VH: QVHLVESGGGLVKPGRSLRLSCAASGFTFSDYYMAWIRQVPGKGLEWVSFISSSGRTIYYADSVKGRFTISRDNAKDSLYLQMHSLRAEDTAVYYCARDSYSKLVDIEAIEAFDIWGRGTMVTVSS VL: SYELAQPPSVSVAPGKTATIACGGDNIGGKSVHWYLQKAGQAPVLVISYDSDRPSGIPERFSGSNSGNTATLTISRVEAGDEADYFCQVWDRHGDHVVFGGGTKLTVL | 0.9 ng/mL | 0.13 ng/mL | – | -2% | 117% | 37% | 29% | 14% | -4% | 17% | 36% | 27% | 87% | 29% | 27% | 24% | 27% | 16% | 33% | –
2-18 (antibody, V domains shown) VH: EVQLVQSGGGLVQPGGSLRVSCAASGFSFSDHDMDWVRQAPGKGFEWVGRSRNKDYSSTTEYAASVRGRFTISRHTSEDLLYLELNTVKTEDTAVYFCARGPHHSDRSGYYGGTFDIWGQGTMVTVSS VL: DIQMTQSPSSVSASVGDRVIITCRASQGISSWLAWYQQKPGRAPRLLIYDASTLESGVPSRFSGRGSGTEFTLTINSLQPEDFATYYCQQGNMFPLTFGGGTKVEIK | 0.9 ng/mL | 0.18 ng/mL | – | -31% | 12% | 17% | 3% | 97% | 117% | -1% | 6% | 16% | 10% | 8% | -6% | -11% | 8% | -1% | 15% | 90 ng/mL
1-125 (antibody, V domains shown) VH: QVQLVESGGGLVKPGGSLRLSCAPAGFNFKDYYMTWIRQAPGKGLEWVSFISSSGQTIYYADSVKGRFTISRDNARNSLYLQMNSLRAEDTAVYYCARDSYSKLVDIVAIEAFDLWGQGTLVSVSS VL: SYELTQPPSVSVAPGKMARITCGGDNIGSKSVHWYQQRPGQAPVLVIRFDTDRPSRIPERFSGSNSGNTATLAISRVEAGDEADYYCQVWDSSSARLVFGGGTKLTVL | 0.9 ng/mL | – | – | – | – | – | – | – | – | – | – | – | – | – | – | – | – | – | – | 1400 ng/mL
2-25 (antibody, V domains shown) VH: QVQLVESGAEVKKPGALVKVSCKASGYTFTNYAIHWVRQASGQRLEWMGWINAGRGNTKYSQKFQGRVTITRDTSASTAYMELSSLRSEDAAVYFCARDESTGDYYYYMDVWGKGTTVTVSS VL: SYELTQPPSVSVSPGQTASITCSGDRLDDKYASWYQQKAGQSPVLVIYQDNKRPSGIPERFSGSNSGNTATLTISGTQAMDEADYYCQAWDSDTYVFGTGTKVTVL | 0.09 ng/mL | 0.08 ng/mL | – | -25% | -17% | 6% | -1% | 87% | 104% | -4% | 29% | 9% | 7% | 15% | -10% | 1% | -4% | 2% | 10% | –
3-7 (antibody, V domains shown) VH: QVQLVQSGAEVKKPGASVKVSCKTSGYTFNTYAISWVRQAPGQGLEWVGWINTYSGSTKYAQKVQGRVTMTTDTSTSTAYMELRGLRSDDTAVYYCARDGYNWGFLDFWGQGSLVTVSS VL: DIQMTQSPSSLSASVGDRVTITCRASQGISNYLAWYQQKPGKLPKLLIYAASTLQSGVPSRFSGSGSGTDFTLTISSLQPEDVASYYCQKYNSAPLTFGPGTKVDIK | 80 ng/mL | 9.5 ng/mL | 19 ng/mL | 12% | -6% | 97% | 21% | 51% | 44% | 14% | 38% | 91% | 35% | 20% | 16% | 35% | 27% | 10% | 102% | 70 ng/mL
3-16 (antibody, V domains shown) VH: QVQVVQSGAEVKKPGASVMVSCKTSGYRFTIYSIAWMRQAPGQGLEWMGSINTYNGNTKYAEKFQGRVTMSRDTSTSTAYMEVRSLGSADTAMYYCARDAENWGFFDDWGQGTLVTVSS VL: EIVLTQSPGTVSLSPGERVTLSCRASQSVGRHLAWYQQKPGQPPRLLIYGASTRATGVPDRFSGSGSETEFTLAISSLQSEDFALYYCQQYNTWPYTFGQGTKLEIK | 90 ng/mL | 17 ng/mL | 37 ng/mL | 18% | -22% | 88% | -7% | -17% | -21% | -5% | 2% | 79% | 16% | 11% | -1% | -1% | 6% | -5% | 95% | 100 ng/mL
1-32 (antibody, V domains shown) VH: QVKLVESGGGVVQPGRSLRLSCAGSGFAFDNYAMHWVRQAPGKGLEWVAVISLEGRNKYYAGPAKGRFSISRDNSRNTVHLQMNSLRPEDTAVYFCARDMRYYYDSNGHYRNRYGMDVWGQGTTVIVSS VL: DIQMTQSPSSLSASVGDSVTITCQASQDINQFVSWYQQKPGKPPKLLIYDASNLESGVPSRFSGSGSGTHFTFTISSLQPDDIATYYCQQYENLFTFGPGTKVDIK | 20 ng/mL | 0.82 ng/mL | – | -11% | 4% | 10% | 78% | -1% | -33% | 6% | 87% | 8% | 18% | 57% | 97% | 7% | 15% | 91% | 7% | –
